Here are results for 3 substances from PMC4997581.

What all share (assay): co-IP
Assay [1] concerns the target Cyclin B1 (human (endogenous in 293T and HFF)) (UniProt P14635).
Assay [2] addresses Cyclin H (human (endogenous in 293T and HFF)) (UniProt P51946).
For assay [3], the target named is Cyclin T1 (human (endogenous in 293T and HFF)) (UniProt O60563).
Chain of Cyclin T1 (human (endogenous in 293T and HFF)) (O60563 whole entry): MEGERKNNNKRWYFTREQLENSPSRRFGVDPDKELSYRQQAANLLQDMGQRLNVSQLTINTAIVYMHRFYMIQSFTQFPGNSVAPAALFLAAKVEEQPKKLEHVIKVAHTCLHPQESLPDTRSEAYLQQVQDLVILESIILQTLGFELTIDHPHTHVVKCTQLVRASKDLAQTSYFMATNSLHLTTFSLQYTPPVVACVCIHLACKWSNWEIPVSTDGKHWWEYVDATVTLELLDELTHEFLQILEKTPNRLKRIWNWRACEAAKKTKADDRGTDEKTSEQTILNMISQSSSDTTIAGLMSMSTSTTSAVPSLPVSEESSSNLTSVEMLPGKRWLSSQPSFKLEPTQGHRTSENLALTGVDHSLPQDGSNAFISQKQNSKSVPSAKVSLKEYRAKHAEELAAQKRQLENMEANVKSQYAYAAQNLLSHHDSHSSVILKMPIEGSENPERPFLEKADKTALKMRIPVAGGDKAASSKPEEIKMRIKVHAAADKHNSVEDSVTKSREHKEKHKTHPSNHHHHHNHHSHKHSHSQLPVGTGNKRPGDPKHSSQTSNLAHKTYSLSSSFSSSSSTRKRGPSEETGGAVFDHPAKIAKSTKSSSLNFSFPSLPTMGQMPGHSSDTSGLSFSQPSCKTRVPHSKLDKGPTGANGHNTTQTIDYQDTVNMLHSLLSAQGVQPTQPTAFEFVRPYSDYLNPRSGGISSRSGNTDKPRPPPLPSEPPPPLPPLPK

Chain of Cyclin H (human (endogenous in 293T and HFF)) (P51946 whole entry): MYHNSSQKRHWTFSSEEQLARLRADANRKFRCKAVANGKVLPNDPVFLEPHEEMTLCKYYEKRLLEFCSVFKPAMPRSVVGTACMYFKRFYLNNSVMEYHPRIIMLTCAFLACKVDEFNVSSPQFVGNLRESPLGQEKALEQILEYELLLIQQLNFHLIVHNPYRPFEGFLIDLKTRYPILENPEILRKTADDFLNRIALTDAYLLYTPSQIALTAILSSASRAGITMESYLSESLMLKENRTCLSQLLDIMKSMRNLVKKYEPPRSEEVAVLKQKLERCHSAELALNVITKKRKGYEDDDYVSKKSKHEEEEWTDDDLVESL
Chain of Cyclin B1 (human (endogenous in 293T and HFF)) (P14635 whole entry): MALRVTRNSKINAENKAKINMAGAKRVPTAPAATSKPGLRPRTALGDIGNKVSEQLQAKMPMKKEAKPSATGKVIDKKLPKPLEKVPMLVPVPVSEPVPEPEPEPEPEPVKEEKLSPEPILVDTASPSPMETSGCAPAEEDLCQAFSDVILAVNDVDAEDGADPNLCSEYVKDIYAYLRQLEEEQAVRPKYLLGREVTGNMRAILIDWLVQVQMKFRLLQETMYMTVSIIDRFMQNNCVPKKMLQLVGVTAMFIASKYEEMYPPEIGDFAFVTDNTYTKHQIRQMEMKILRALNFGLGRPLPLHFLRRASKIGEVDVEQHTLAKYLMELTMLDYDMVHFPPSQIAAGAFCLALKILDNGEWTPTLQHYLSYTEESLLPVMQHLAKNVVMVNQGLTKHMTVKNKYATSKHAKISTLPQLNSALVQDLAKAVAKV

As to “Protein kinase pUL97 of HCMV AD169, in infected cells (natural protein)”, the pUL97 co-IP Western blot signal relative to cyclin B1 in assay [1] was 100%; in assay [2], 160%; in assay [3] it was 77%.

“HCMV protein kinase pUL97, Flag-tagged (pUL97-Flag) (from UniProt P16788 1-707) (natural protein)”: the pUL97 co-IP Western blot signal relative to cyclin B1 in assay [2] is 4%; in assay [3], 9%.

On to “pUL97 stably expressed in transduced HFFs (from UniProt P16788 1-707) (natural protein)”, for which the pUL97 co-IP Western blot signal relative to cyclin B1 in assay [3] is 42%.
